These results are taken from patent US20140018288A1, “X-DING-CD4 Peptide” (priority 2012, published 2014).

One data set concerns NL4-3 HIV-1 isolate. Briefly: MAGI assay of HIV-1 replication in MAGI-CCR-5 cells. It is filed as cell-based. Conditions: MAGI-CCR-5 cells, NL4-3 HIV-1. The protocol:
The antiviral activity of rX-DING-CD4^pep was tested by MAGI assay. […] Subsequently, cells were exposed to rX-DING-CD4^pep treatment in the presence of DMEM supplemented with 5% fetal bovine serum, antibiotics, glutamate and […] DEAE dextran. […] Replication of virus was evaluated forty eight hours later after fixation of cells with 1% formaldehyde and 0.2% glutaraldehyde in PBS. Expression of β-galactosidase was visualized by 50 min exposure to X-GAL (5-bromo-4-chloro-3-indolyl-β-D-galactopyranoside), 0.4 mg/ml 2 mM MgCl2, 4 mM potassium ferricyanide at 37° C. After enumeration of the infected (blue) cells, all cells were lysed and subjected to the protein assay (Bio-Rad). All data were adjusted by total protein concentration and anti-viral activity was calculated as percent inhibition. The infected untreated and uninfected cells served as (+) and (−) controls to calculate 100% virus infectivity. The inhibition values for HIV-1 replication were calculated based on the formula [(R1−R0)×100/Z]-100; where R1 is the value obtained from cells infected by HIV-1 and treated with specific dilution of X-DING-CD4^pep and R^0 is the basal value obtained from the uninfected and untreated cells; Z is the absolute HIV-1 replication value calculated as Z═Rmax−R0, where Rmax is the value representing 100% of HIV-1 replication in X-DING-CD4^pep untreated cells.

Data set [1] in a line: Acute toxicity after intraperitoneal injection in mice. It is filed as in vivo, mice (B6/SJL). Conditions: 1-50 μg rX-DING-CD4^pep or 50 μg nX-DING-CD4, 7 days. The protocol:
In the animal tests, eight-week old wild-type mice (B6/SJL) with both genders in each test group were injected intraperitoneally with 1-50 μg of rX-DING-CD4^pep or 50 μg nX-DING-CD4. The nX-DING-CD4 refers to the native form of X-DING-CD4 protein that was purified through IXC chromatography from the extracellular compartment of HIV-1 resistant T-cells. The rX-DING-CD4^pep refers to therapeutic X-DING-CD4 peptide that was expressed in E. coli and purified through Ni-affinity column. Toxicity was assessed by obvious symptoms including diarrhea, ruffled fur, abnormal gait, or loss of more than 10% weight. Animals were weighted before injection and then observed every hour for the first 10 hours after injection; then animals were weighted on 1, 3, 4 and 7 days after X-DING-CD4 administration. […] In its highest administered dose (50 μg—corresponding to 2 μg/G) we exceeded therapeutic dose blocking 95% of HIV promoter activity (by RSA assays) and 90% virus replication (by MAGI assays) (See FIGS. 2 & 3 in Example 2).

In data set [2] the test system is EcoHIV (ecotropic HIV-1 EcoNDK). Briefly: EcoHIV mouse model of HIV infection, Tat and Vif mRNA by qRT-PCR. The format is in vivo, C57BL mice. The conditions noted are these: two intraperitoneal doses of 20 μg. An excerpt:
The mouse model of HIV infection is well-known by persons skilled in the art and is widely used to study therapeutic activities of various pharmaceutical agents. It was generated by using chimeric HIV (EcoHIV), which is a modified HIV that can infect mouse T cells and macrophages and can establish persistent infection of immunocompetent mice after intravenous or intraperitoneal exposure (Potash et al., 2005). The EcoHIV infection mouse model reproduces many characteristics of HIV-1 infection in humans such as virus targeting to lymphocytes and macrophages, induction of antiviral immune responses, neuroinvasiveness, and elevation of expression of inflammatory and antiviral factors in the brain (Potash et al., 2005). […]
In this example, we started with three groups of C57BL mice (groups I, II and III), each group having three mice. […] The amount of EcoHIV-1 virus load was assessed by determining the messenger RNA (mRNA) levels of HIV-Tat and Vif genes by quantitative RT-PCR (qRT-PCR). The amount of HIV-1 Gag DNA in the each sample, which was also determined by qRT-PCR, was used as a quantitative control for the HIV-Tat and Vif mRNA levels. […]
A general note: Real-time PCR tracks product formation cycle by cycle.

A further data set relates to X-DING-CD4 mRNA. The data set can be described thus: Induction of X-DING-CD4 mRNA expression in 1G5 cells (qRT-PCR). It is filed as cell-based. The conditions noted are these: 6 hours, 200 ng/ml. The protocol:
The sX-DING-CD4 may be released from the macropinosome to endoplasmic reticulum (ER) and cause induction of IFNα, which in turn induces the expression of X-DING-CD4 mRNA and endogenous X-DING-CD4 protein (step 2). The induction of X-DING-CD4 mRNA by sX-DING-CD4 was tested in 1G5 cells. Briefly, three groups of 1G5 cells were treated for 6 hours with NL4-3 HIV-1 at MOI of 0.1, 200 ng/ml native X-DING-CD4 protein, and 1-126 rX-DING-CD4 peptide (i.e., rX-DING-CD4^pep), respectively. […] The eX-DING-CD4, derived from the newly synthesized X-DING-CD4, binds CN and is transported into the nucleus where it blocks LTR transcription (steps 2-7).
Two peptide fragments from the N-terminal region of X-DING-CD4 were synthesized and their activities in inducing IFN-α and X-DING-CD4 mRNA expressions were determined by qRT-PCR. The concentration of proteins used in the assays was 200 ng/ml except for the combination of XD-1 and XD-4 where we used 100 ng/ml of each peptide. The 1-126 rX-DING-CD4 and peptide C3 p16 served as positive and negative controls, respectively. The C3 Peptide P16 was derived from the C3d component of serum complement. C3 Peptide P16 regulates B cells, but not T cells, through interacting with the gp140 C3d receptor (CR2).

B1: MADINGGGATLPQPLYQTSGVLTAGFAPYIGVGSGKGKLAFLNNDYSQFGTGTKNVHWAGSDSKLTSTELSTYASTKQAAWGKLIQVPSVATSVAIPFNKAGSNAVDLSVDQLCGVFSGRITTWNQ (protein, listed as Homo sapiens)
chain: MADINGGGATLPQPLYQTSGVLTAGFAPYIGVGSGKGKLAFLNNDYSQFGTGTKNVHWAGSDSKLTSTELSTYASTKQAAWGKLIQVPSVATSVAIPFNKAGSNAVDLSVDQLCGVFSGRITTWNQ
For orientation: IC50 means the concentration needed to halve the response being measured. Low readings indicate higher potency, high ones lower potency. What is called IC80 is the concentration at which the effect reaches the 80% level. A low value points to an effect from little substance. In the data set on NL4-3 HIV-1 isolate, B1 had an IC50 of 18.9 nM and an IC80 of 151 nM. In data set [1], the “obvious symptoms of toxicity (diarrhea, ruffled fur, abnormal gait)” value is listed as “Neither of rX-DING-CD4^pep treatment nor nX-DING-CD4 treatment caused any obvious symptoms”. The “expression of EcoHIV Tat mRNA and vif mRNA versus saline or heat inactivated peptide” value in data set [2] (48 hours) is given as “decreased expression”. In addition, in data set [2] (two days after infection), the “transcription of EcoHIV blocked” value was 75%. Moreover, the “expression of X-DING-CD4 mRNA” value in the data set on X-DING-CD4 mRNA is reported as “induced expression of X-DING-CD4 mRNA”.
